Experimental data from patent US20190046600.

What was measured:
[1] = molecular target: T1, Ac-DEVD-CHO
T1 chain: DEVD

[2] = molecular target: T2, HILR-030 (cyclo-[Pro-Arg-Gly-Pro-Arg-Pro-Val-Trp-Trp-Gpa-Gpa-Trp-Trp-Gpa-Gpa-Trp-Trp])
T2 chain: PRGPRPVWWXXWWXXWW

B1: recombinant human caspase 3 enzyme (protein)
chain: SGISLDNSYKMDYPEMGLCIIINNKNFHKSTGMTSRSGTDVDAANLRETFRNLKYEVRNKNDLTREEIVELMRDVSKEDHSKRSSFVCVLLSHGEEGIIFGTNGPVDLKKITNFFRGDRCRSLTGKPKLFIIQACRGTELDCGIETDSGVDDDMACHKIPVEADFLYAYSTAPGYYSWRNSKDGSWFIQSLCAMLKQYADKLEFMHILTRVNRKVATEFESFSFDATFHAKKQIPCIVSMLTKELYFYH
caspase-3 activity (Apo-ONE Homogeneous Caspase-3/7 assay, 2 h co-incubation with substrate or enzyme) [1]: Both DEVD-CHO and HILR-030 inhibited the caspase-3 activity in a dose-dependent fashion | caspase-3 activity (Apo-ONE Homogeneous Caspase-3/7 assay, cleavage of Z-DEVD-R110, recombinant enzyme) [1]: Ac-DEVD-CHO inhibited the activity of caspase-3 in a dose-dependent manner, giving rise to IC50s within the expected range according to the inhibitor specification sheet | caspase-3 activity (Apo-ONE Homogeneous Caspase-3/7 assay, 2 h co-incubation with substrate or enzyme) [2]: Both DEVD-CHO and HILR-030 inhibited the caspase-3 activity in a dose-dependent fashion
